The series deals with the molecule itself. The series can be described thus: fluorescence correlation spectroscopy (FCS); purified ubiquitin- and GFP-tagged proteins at 0.1 µM in 20 mM HepesKOH pH 7.6 with 150 mM NaCl, compared with 500 mM NaCl; diffusivity as read-out of self-association.

B1: His-ubiquitin- and GFP-tagged full-length Cavin1 (recombinant GFP-Cavin1) (natural protein, mouse, UniProt O54724 1-392, looked up)
chain: MEDVTLHIVERPYSGFPDASSEGPEPTQGEARATEEPSGTGSDELIKSDQVNGVLVLSLLDKIIGAVDQIQLTQAQLEERQAEMEGAVQSIQGELSKLGKAHATTSNTVSKLLEKVRKVSVNVKTVRGSLERQAGQIKKLEVNEAELLRRRNFKVMIYQDEVKLPAKLSVSKSLKESEALPEKEGDELGEGERPEDDTAAIELSSDEAVEVEEVIEESRAERIKRSGLRRVDDFKKAFSKEKMEKTKVRTRENLEKTRLKTKENLEKTRHTLEKRMNKLGTRLVPVERREKLKTSRDKLRKSFTPDHVVYARSKTAVYKVPPFTFHVKKIREGEVEVLKATEMVEVGPEDDEVGAERGEATDLLRGSSPDVHTLLEITEESDAVLVDKSDSD
notes: Cavin1, mouse, residues 1-392; also called purified recombinant GFP-Cavin1; source: E. coli Rosetta 2 (DE3), purified (TALON, Superose 6 SEC); not shown: His6-ubiquitin, N-terminal, kept; GFP, C-terminal, kept
Turning to B1, the binding result is “binds”.

(Values after publication PMC7875971, “Cavin1 intrinsically disordered domains are essential for fuzzy electrostatic interactions and caveola formation” (Nature Communications, 2021).)
